In US20040086528A1 (PROGENICS PHARMACEUTICALS, published 2004):
Where a chain is given by its changes, count along the chain named.

T1: CCR5 D2A, HA-tagged (human, UniProt P51681 1-352)
T1 sequence (looked up): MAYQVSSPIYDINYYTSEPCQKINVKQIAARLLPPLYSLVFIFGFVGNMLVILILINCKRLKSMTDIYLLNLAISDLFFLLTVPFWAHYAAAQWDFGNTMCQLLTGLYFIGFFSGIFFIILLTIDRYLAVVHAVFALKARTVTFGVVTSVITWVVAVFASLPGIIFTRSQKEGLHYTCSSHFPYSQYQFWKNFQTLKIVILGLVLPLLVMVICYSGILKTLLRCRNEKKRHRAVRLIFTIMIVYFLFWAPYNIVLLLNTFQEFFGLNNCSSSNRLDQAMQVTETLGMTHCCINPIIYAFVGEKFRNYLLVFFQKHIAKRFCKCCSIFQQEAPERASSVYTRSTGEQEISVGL

T2: CCR5 Q93A, HA-tagged (human, UniProt P51681 1-352)
T2 sequence: T1 sequence (looked up) with A2D, Q93A

T3: CCR5 D95A, HA-tagged (human, UniProt P51681 1-352)
T3 sequence: T1 sequence (looked up) with A2D, D95A

T4: CCR5 Y184A, HA-tagged (human, UniProt P51681 1-352)
T4 sequence: T1 sequence (looked up) with A2D, Y184A

T5: CCR5 Q188A, HA-tagged (human, UniProt P51681 1-352)
T5 sequence: T1 sequence (looked up) with A2D, Q188A

T6: CCR5 K191A/N192A, HA-tagged (human, UniProt P51681 1-352)
T6 sequence: T1 sequence (looked up) with A2D, K191A, N192A

T7: CCR5 R274A/D276A, HA-tagged (human, UniProt P51681 1-352)
T7 sequence: T1 sequence (looked up) with A2D, R274A, D276A

B1: RANTES, recombinant human (ligand)
chain: SPYSSDTTPCCFAYIARPLPRAHIKEYFYTSGKCSNPAVVFVTRKNRQVCANPEKKWVREYINSLEMS
B2: macrophage inflammatory protein (MIP)-1β, recombinant human (ligand, UniProt P13236 24-92, looked up)
chain: APMGSDPPTACCFSYTARKLPRNFVVDYYETSSLCSQPAVVFQTKRSKQVCADPSESWVQEYVYDLELN

Key:
Assay in all cases: cell-based or functional assay
[1] = molecular target: wild-type CCR5, HA-tagged at the C-terminus (human, UniProt P51681 1-352)
CCR5 D2A, HA-tagged = molecular target: T1, CCR5 D2A, HA-tagged
CCR5 Q93A, HA-tagged = molecular target: T2, CCR5 Q93A, HA-tagged
CCR5 D95A, HA-tagged = molecular target: T3, CCR5 D95A, HA-tagged
CCR5 Y184A, HA-tagged = molecular target: T4, CCR5 Y184A, HA-tagged
CCR5 Q188A, HA-tagged = molecular target: T5, CCR5 Q188A, HA-tagged
[2] = molecular target: T6, CCR5 K191A/N192A, HA-tagged
[3] = molecular target: T7, CCR5 R274A/D276A, HA-tagged

Row | Binder | relative % inhibition of NLluc/JR-FL entry into U87MG-CD4 cells by 2 µg/ml chemokine (wild-type = 100) [1] | relative % inhibition of NLluc/JR-FL entry into U87MG-CD4 cells by 2 µg/ml chemokine (wild-type = 100) (CCR5 D2A, HA-tagged) | relative % inhibition of NLluc/JR-FL entry into U87MG-CD4 cells by 2 µg/ml chemokine (wild-type = 100) (CCR5 Q93A, HA-tagged) | relative % inhibition of NLluc/JR-FL entry into U87MG-CD4 cells by 2 µg/ml chemokine (wild-type = 100) (CCR5 D95A, HA-tagged) | relative % inhibition of NLluc/JR-FL entry into U87MG-CD4 cells by 2 µg/ml chemokine (wild-type = 100) (CCR5 Y184A, HA-tagged) | relative % inhibition of NLluc/JR-FL entry into U87MG-CD4 cells by 2 µg/ml chemokine (wild-type = 100) (CCR5 Q188A, HA-tagged) | relative % inhibition of NLluc/JR-FL entry into U87MG-CD4 cells by 2 µg/ml chemokine (wild-type = 100) [2] | relative % inhibition of NLluc/JR-FL entry into U87MG-CD4 cells by 2 µg/ml chemokine (wild-type = 100) [3]
1 | B1 | 100% | 85% | 114% | 121% | 36% | 51% | 18% | 33%
2 | B2 | 100% | 97% | 97% | 112% | 68% | 75% | 15% | 36%
